Data taken from patent US10233241B2 (priority 2014, dated 2019).
Where a chain is given by its changes, count along the chain named.

B1: XA9644: Profile III VHH of a new sequence family, SEQ ID NO: 74 (protein, listed as Lama glama)
VHH: QVQLVESGGGLVRPGGSLRLSCVDSERIFSISAMGWYRQAPGKQRELVATITSGGTTNYADSVKGRFTISGDTAKNMVYLQMSSLKPEDTAVYYCAADMEVWDYTDGDDDDYWGQGTQVTVSSAAAHHHHHHGAAEQKLISEEDLNGAA
B2: XA8727: Mor1-specific VHH, SEQ ID NO: 6, Profile III, intracellular binder (protein, listed as Lama glama)
VHH: QVQLVESGGGLVQAGGSLRLSCAASGFTFDDYAIAWFRQAPGKEREGVSCISSSDGSTYYADSVKGRFTISNDNAKNTVYLQMNSLKPEDTAVYYCAADLSRSCGRGYRYLEVWGQGTQVTVSSAAAHHHHHHGAAEQKLISEEDLNGAA
B3: XA8633: Mor1-specific VHH, SEQ ID NO: 1, Profile I, candidate G-protein mimicking, active state stabilizing (protein, listed as Lama glama)
VHH: QVQLVESGGGLVRPGGSRRLSCVDSERTSYPMGWFRRAPGKEREFVASITWSGIDPTYADSVADRFTISRDVANNTLYLQMNSLKHEDTAVYYCAARAPVGQSSSPYDYDYWGQGTQVTVSSAAAHHHHHHGAAEQKLISEEDLNGAA
B4: XA8641: Mor1-specific VHH, SEQ ID NO: 3, Profile I (protein, listed as Lama glama)
VHH: B3 VHH with R18L, E26G
B5: XA8643: Mor1-specific VHH, SEQ ID NO: 4, Profile I (protein, listed as Lama glama)
VHH: B3 VHH with R18L
B6: XA8639: Mor1-specific VHH, SEQ ID NO: 2, Profile I, G-protein mimetic (protein, listed as Lama glama)
VHH: B3 VHH with R18L, I68T
B7: XA8635: Mor1-specific VHH, SEQ ID NO: 5, Profile II, binds extracellular part and orthosteric pocket (protein, listed as Lama glama)
VHH: QVQLVESGGGLVQAGGSLRLSCAASGSISSISTMGWYRQAPGNERELVAAITSGGSTNYADSVKGRFTISRDNAKNTVYLQMNSLKPEDTAVYYCNFKYYSGSYFYKSEYDYWGQGTQVTVSSAAAHHHHHHGAAEQKLISEEDLNGAA
B8: bivalent XA8635: genetic head to tail fusion of XA8635, separated by a 9GS linker, SEQ ID NO: 49 (protein)
chain: QVQLVESGGGLVQAGGSLRLSCAASGSISSISTMGWYRQAPGNERELVAAITSGGSTNYADSVKGRFTISRDNAKNTVYLQMNSLKPEDTAVYYCNFKYYSGSYFYKSEYDYWGQGTQVTVSSGGGGSGGGSQVQLQESGGGLVQAGGSLRLSCAASGSISSISTMGWYRQAPGNERELVAAITSGGSTNYADSVKGRFTISRDNAKNTVYLQMNSLKPEDTAVYYCNFKYYSGSYFYKSEYDYWGQGTQVTVSSAAAEQKLISEEDLNGAAHHHHHH

What was measured:
[1] = test system: β-arrestin1 or β-arrestin2; details: cell culture assays; cited from earlier work
[2] = test system: inflammatory pain model in rat; details: cited from earlier work
[3] = target: T1, Delta mMor1 (Mus musculus, UniProt P42866, INS358LEVLFQGP/INS51ENLYFQ); experiment: Flow cytometry binding of VHHs to Delta mMor1/Sf9 cells with or without Mor1 ligand; details: for Flow cytometry binding profile on Delta mMor1/Sf9 cells / Side of Mor1 bound (intact versus permeable Sf9 cells, Topro3 gating): periplasmic extracts; for Flow cytometry binding profile on Delta mMor1/Sf9 cells: no ligand, 20 μM Dmt1-Dalda or 20 μM naloxone, mock GPCR Sf9 as control
T1 construct: expressed in transfected cells; host or cells: Sf9 insect cells, baculovirus-infected (BestBac)

[4] = target: T2, truncDelta mMor1 (Mus musculus, UniProt P42866); experiment: ELISA of VHH binding to truncDelta mMor1 reconstituted in liposomes; details: periplasmic extracts, 10 μM Dmt1-Dalda
T2 construct: N- and C-termini are removed by enzymatic proteolysis, resulting in truncDelta mMor1; TEV cleavage site ENLYFQ (after G51 of P42866) (internal); made in house; host or cells: Sf9 insect cells (baculovirus); purified and reconstituted into lipid vesicles

[5] = target: T3, Mor1 (Mus musculus, UniProt P42866); format: binding
[6] = target: T4, WT human Mor1 (Homo sapiens, UniProt P35372); experiment: Radioligand displacement by XA8635 on WT human hMor1/CHO membranes; format: binding; details: 5 μg WT human hMor1/CHO membranes, 1 nM radioligand, no agonist
T4 construct: purchased Perkin Elmer ES-542-M400UA; host or cells: CHO cells overexpressing wild-type human Mor1 (membranes)
T4 sequence (P35372 whole entry): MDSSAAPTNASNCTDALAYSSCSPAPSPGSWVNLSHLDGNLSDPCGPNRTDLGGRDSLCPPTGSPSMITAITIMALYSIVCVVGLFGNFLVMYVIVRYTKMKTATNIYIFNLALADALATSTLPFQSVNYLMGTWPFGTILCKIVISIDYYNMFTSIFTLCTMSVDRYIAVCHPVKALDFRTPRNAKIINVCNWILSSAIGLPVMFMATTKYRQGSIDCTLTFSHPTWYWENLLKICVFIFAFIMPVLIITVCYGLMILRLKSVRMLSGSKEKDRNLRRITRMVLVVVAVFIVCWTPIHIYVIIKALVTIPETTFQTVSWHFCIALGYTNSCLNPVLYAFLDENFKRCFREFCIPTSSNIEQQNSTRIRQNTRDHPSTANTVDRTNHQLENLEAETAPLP
Protocol: (§1) A radioligand competition assay was performed as described in Example 6 with minor modifications: 5 μg of WT human hMor1/CHO membranes or 7 μg of Delta mMor1/Sf9 membranes were incubated with a concentration range of purified XA8635 and 1 nM of the radioligand (no agonist was added). The mixture was incubated for 1 hour at RT and after washing, filter bound radioligand was measured.

[7] = target: T1, Delta mMor1; experiment: Radioligand displacement by XA8635 on Delta mMor1/Sf9 membranes; format: binding; details: 7 μg Delta mMor1/Sf9 membranes, 1 nM radioligand, no agonist
Protocol: as §1

[8] = target: T5, human Mor1 (Homo sapiens, UniProt P35372); experiment: Flow cytometry binding of mono- and bivalent XA8635 to Mor overexpressing CHO cells; details: for Binding to Mor overexpressing CHO cells vs parental non-transfected CHO cells: absence of any Mor1 ligand
T5 construct: expressed in transfected cells; host or cells: CHO cells
T5 sequence (P35372 whole entry): as above

[9] = target: T3, Mor1; experiment: Affinity of XA8635 for ligand-free Mor1; details: read-out: Ki of binding to the receptor

Row | Molecule | Flow cytometry binding profile on Delta mMor1/Sf9 cells [3] | Side of Mor1 bound (intact versus permeable Sf9 cells, Topro3 gating) [3] | Binding to truncDelta mMor1 liposomes in ELISA [4] | other results
1 | COC(=O)[C@@H]1C[C@H](OC(=O)c2ccccc2)C(=O)[C@H]2[C@@]1(C)CC[C@H]1C(=O)O[C@H](c3ccoc3)C[C@]21C [herkinorin] | – | – | – | Recruitment of β-arrestin1 or β-arrestin2 [1]: does not recruit β-arrestin1 or β-arrestin2; Antinociception in morphine-tolerant rats ([2]; morphine-tolerant rats): produces antinociception in morphine-tolerant rats; Formalin-induced flinching ([2]; rat, 10 mg/kg, i.pl., reversed by naloxone): reduces formalin-induced flinching to the same degree as morphine; Antinociceptive tolerance ([2]; repeated treatment over a 5-day period): does not develop
2 | B1 | Profile III | – | – | –
3 | B2 | Profile III | intracellular part of Mor1 | confirmed to bind Mor1 in ELISA | –
4 | B3 | Profile I | intracellular epitopes | confirmed to bind Mor1 in ELISA | Fluorescence profile of purified VHH compared to the one obtained with periplasm ([3]; 1 μM purified VHH): identical fluorescence profile
5 | B4 | Profile I | intracellular epitopes | confirmed to bind Mor1 in ELISA | –
6 | B5 | Profile I | intracellular epitopes | confirmed to bind Mor1 in ELISA | –
7 | B6 | Profile I | intracellular epitopes | confirmed to bind Mor1 in ELISA | Enhancement of affinity for BU72 [5]: 176 fold
8 | B7 | Profile II | extracellular part of the receptor | confirmed to bind Mor1 in ELISA | Fluorescence profile of purified VHH compared to the one obtained with periplasm ([3]; 1 μM purified VHH): identical fluorescence profile; Binding to Sf9 cells overexpressing Mor1 in presence of Mor1 ligand (agonist or antagonist) ([3]; 1 μM purified VHH, intact and permeable cells): loses its ability to specifically bind; Radioligand displacement [6]: dose-dependent increase in radioligand displacement; Radioligand displacement [7]: dose-dependent increase in radioligand displacement; Binding to Mor overexpressing CHO cells vs parental non-transfected CHO cells [8]: dose-dependent specific binding; Ki [9]: ~12 nM
9 | B8 | – | – | – | Increased fluorescence versus monovalent XA8635 ([8]; 1 μM): approximately 34%; Binding to Mor overexpressing CHO cells vs parental non-transfected CHO cells [8]: dose-dependent specific binding
